# Experimental data reported in patent US20110229560A1 (published 2011).
# Assays:
# [1] = biological target: T1, HA-tagged NLRC5 (human NLRC5, full length) (human, UniProt Q86WI3 1-1866); experiment: co-IP (anti-Flag or anti-HA beads) and Western blot, FIG. 15
# T1 construct: Expressed from pcDNA3.1 with an HA tag in transfected 293T cells; used in lysates for co-immunoprecipitation; General statements about NLRC5 in overexpression experiments are put on this molecule; also called HA-NLRC5
# [2] = biological target: T1, HA-tagged NLRC5 (human NLRC5, full …); experiment: co-IP (anti-HA beads) and Western blot (anti-Flag), transfected 293T cells
# [3] = biological target: T2, endogenous mouse NLRC5 (RAW264.7 cells) (mouse, UniProt C3VPR6 1-1915, limits assumed); experiment: IP of RAW264.7 lysate with anti-mNLRC5, Western blot with anti-NEMO
# T2 construct: Endogenous protein; also called mNLRC5; endogenous mNLRC5
# T2 sequence (C3VPR6 whole entry G881R): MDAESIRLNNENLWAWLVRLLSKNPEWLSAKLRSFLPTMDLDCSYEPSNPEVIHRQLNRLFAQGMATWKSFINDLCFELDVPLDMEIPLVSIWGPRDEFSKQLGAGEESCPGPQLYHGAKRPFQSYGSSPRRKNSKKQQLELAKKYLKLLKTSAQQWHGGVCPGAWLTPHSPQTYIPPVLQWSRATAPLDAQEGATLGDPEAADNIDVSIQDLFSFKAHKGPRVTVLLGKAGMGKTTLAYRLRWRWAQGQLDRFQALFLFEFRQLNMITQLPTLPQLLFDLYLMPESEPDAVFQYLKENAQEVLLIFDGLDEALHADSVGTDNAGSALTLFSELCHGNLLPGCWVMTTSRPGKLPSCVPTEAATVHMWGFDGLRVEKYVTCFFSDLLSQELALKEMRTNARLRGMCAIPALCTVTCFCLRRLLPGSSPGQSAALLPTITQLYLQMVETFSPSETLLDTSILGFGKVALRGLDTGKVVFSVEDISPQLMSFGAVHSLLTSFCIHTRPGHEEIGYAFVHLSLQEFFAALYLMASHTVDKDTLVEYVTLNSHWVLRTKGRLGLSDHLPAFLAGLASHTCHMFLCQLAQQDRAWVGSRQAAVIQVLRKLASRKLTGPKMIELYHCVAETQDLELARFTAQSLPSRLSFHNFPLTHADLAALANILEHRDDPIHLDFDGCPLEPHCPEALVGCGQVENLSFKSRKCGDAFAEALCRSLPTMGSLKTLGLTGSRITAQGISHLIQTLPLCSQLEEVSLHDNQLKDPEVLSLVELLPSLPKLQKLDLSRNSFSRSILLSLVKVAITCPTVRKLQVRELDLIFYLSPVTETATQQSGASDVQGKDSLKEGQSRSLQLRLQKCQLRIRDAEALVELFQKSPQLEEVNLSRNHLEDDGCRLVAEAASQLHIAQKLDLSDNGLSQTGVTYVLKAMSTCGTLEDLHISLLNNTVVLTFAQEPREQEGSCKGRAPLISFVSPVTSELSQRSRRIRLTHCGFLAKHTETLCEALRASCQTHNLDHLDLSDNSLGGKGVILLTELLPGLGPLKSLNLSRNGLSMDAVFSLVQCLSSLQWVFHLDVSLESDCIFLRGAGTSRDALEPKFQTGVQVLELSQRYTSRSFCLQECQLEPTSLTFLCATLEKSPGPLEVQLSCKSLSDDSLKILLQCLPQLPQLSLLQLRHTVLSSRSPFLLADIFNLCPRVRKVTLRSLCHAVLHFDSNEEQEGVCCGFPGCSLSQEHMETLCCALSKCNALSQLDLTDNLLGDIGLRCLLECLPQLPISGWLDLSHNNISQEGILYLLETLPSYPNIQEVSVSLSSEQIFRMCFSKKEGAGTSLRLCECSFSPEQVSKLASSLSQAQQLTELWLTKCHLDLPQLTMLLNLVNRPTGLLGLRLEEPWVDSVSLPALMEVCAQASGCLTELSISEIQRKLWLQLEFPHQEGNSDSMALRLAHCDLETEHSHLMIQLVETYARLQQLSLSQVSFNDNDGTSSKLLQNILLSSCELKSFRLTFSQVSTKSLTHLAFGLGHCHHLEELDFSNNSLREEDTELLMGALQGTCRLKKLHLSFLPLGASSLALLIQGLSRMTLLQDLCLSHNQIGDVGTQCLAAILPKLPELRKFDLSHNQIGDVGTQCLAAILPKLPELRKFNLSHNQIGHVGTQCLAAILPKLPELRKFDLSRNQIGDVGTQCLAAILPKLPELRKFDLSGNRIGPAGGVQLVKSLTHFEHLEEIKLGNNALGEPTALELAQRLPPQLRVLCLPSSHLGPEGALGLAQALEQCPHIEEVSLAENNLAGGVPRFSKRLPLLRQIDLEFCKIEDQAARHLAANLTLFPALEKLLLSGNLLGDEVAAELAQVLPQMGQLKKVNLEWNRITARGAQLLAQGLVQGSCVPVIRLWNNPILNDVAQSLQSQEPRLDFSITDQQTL
# T1 sequence (Q86WI3 whole entry N907D): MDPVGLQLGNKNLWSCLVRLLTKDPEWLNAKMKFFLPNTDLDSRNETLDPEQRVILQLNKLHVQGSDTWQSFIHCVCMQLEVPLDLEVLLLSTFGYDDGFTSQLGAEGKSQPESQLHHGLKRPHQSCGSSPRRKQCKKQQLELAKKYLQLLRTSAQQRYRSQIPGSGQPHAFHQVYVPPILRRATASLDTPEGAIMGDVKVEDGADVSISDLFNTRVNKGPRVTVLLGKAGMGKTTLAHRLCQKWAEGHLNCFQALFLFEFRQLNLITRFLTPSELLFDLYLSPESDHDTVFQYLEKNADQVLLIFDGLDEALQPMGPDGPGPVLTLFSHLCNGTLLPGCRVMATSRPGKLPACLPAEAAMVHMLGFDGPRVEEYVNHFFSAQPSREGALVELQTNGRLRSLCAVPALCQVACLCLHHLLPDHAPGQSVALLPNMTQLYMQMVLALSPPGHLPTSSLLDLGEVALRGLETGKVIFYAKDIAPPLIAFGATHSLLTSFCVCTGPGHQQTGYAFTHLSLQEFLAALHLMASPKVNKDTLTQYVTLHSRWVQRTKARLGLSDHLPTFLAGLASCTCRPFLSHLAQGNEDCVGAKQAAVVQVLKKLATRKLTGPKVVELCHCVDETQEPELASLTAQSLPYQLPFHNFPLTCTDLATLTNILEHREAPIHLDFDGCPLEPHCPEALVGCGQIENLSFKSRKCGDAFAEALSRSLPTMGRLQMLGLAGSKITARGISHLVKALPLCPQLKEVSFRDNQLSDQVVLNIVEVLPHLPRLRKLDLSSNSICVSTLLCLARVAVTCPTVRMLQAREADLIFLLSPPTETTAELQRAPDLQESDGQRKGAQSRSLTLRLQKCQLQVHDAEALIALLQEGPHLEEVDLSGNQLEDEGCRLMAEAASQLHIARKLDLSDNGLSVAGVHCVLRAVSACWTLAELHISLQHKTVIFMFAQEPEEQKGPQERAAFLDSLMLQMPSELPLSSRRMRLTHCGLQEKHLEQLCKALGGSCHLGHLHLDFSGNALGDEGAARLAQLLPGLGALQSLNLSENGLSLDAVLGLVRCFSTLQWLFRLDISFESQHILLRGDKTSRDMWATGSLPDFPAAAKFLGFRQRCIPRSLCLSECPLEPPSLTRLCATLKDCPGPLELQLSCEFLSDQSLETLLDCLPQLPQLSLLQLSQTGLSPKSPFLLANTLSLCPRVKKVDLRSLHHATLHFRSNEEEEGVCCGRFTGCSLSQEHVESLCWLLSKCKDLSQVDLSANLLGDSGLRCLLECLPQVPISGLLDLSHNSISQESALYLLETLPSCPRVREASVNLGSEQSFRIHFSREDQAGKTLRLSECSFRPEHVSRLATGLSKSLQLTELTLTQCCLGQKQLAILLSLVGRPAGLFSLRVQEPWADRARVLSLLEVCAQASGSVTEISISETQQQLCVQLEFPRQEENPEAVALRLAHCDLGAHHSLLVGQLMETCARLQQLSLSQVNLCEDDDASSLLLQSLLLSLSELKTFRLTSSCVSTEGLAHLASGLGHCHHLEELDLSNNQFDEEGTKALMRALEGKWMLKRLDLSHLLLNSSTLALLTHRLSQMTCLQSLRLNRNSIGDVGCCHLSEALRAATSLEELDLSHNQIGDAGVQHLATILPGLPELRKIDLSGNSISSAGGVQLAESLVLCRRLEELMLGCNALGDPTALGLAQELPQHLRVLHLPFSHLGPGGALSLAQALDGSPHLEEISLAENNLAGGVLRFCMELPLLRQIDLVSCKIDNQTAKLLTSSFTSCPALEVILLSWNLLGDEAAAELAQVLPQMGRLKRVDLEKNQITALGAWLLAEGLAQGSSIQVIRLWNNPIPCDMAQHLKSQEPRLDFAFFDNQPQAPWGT
Binder,binding result [1],binding result [2],further results
"TBK1 (expressed in 293T cells) (enzyme, UniProt Q9UHD2 1-729, looked up, not shown: small tags and cut ends) MQSTSNHLWLLSDILGQGATANVFRGRHKKTGDLFAIKVFNNISFLRPVDVQMREFEVLKKLNHKNIVKLFAIEEETTTRHKVLIMEFCPCGSLYTVLEEPSNAYGLPESEFLIVLRDVVGGMNHLRENGIVHRDIKPGNIMRVIGEDGQSVYKLTDFGAARELEDDEQFVSLYGTEEYLHPDMYERAVLRKDHQKKYGATVDLWSIGVTFYHAATGSLPFRPFEGPRRNKEVMYKIITGKPSGAISGVQKAENGPIDWSGDMPVSCSLSRGLQVLLTPVLANILEADQEKCWGFDQFFAETSDILHRMVIHVFSLQQMTAHKIYIHSYNTATIFHELVYKQTKIISSNQELIYEGRRLVLEPGRLAQHFPKTTEENPIFVVSREPLNTIGLIYEKISLPKVHPRYDLDGDASMAKAITGVVCYACRIASTLLLYQELMRKGIRWLIELIKDDYNETVHKKTEVVITLDFCIRNIEKTVKVYEKLMKINLEAAELGEISDIHTKLLRLSSSQGTIETSLQDIDSRLSPGGSLADAWAHQEGTHPKDRNVEKLQVLLNCMTEIYYQFKKDKAERRLAYNEEQIHKFDKQKLYYHATKAMTHFTDECVKKYEAFLNKSEEWIRKMLHLRKQLLSLTNQCFDIEEEVSKYQEYTNELQETLPQKMFTASSGIKHTMTPIYPSSNTLVEMTLGMKKLKEEMEGVVKELAENNHILERFGSLTMDGGLRNVDCL",no binding,–,–
"IKKi (expressed in 293T cells, detected with anti-Flag) (enzyme, UniProt Q14164 1-716, looked up, not shown: small tags and cut ends) MQSTANYLWHTDDLLGQGATASVYKARNKKSGELVAVKVFNTTSYLRPREVQVREFEVLRKLNHQNIVKLFAVEETGGSRQKVLVMEYCSSGSLLSVLESPENAFGLPEDEFLVVLRCVVAGMNHLRENGIVHRDIKPGNIMRLVGEEGQSIYKLTDFGAARELDDDEKFVSVYGTEEYLHPDMYERAVLRKPQQKAFGVTVDLWSIGVTLYHAATGSLPFIPFGGPRRNKEIMYRITTEKPAGAIAGAQRRENGPLEWSYTLPITCQLSLGLQSQLVPILANILEVEQAKCWGFDQFFAETSDILQRVVVHVFSLSQAVLHHIYIHAHNTIAIFQEAVHKQTSVAPRHQEYLFEGHLCVLEPSVSAQHIAHTTASSPLTLFSTAIPKGLAFRDPALDVPKFVPKVDLQADYNTAKGVLGAGYQALRLARALLDGQELMFRGLHWVMEVLQATCRRTLEVARTSLLYLSSSLGTERFSSVAGTPEIQELKAAAELRSRLRTLAEVLSRCSQNITETQESLSSLNRELVKSRDQVHEDRSIQQIQCCLDKMNFIYKQFKKSRMRPGLGYNEEQIHKLDKVNFSHLAKRLLQVFQEECVQKYQASLVTHGKRMRVVHETRNHLRLVGCSVAACNTEAQGVQESLSKLLEELSHQLLQDRAKGAQASPPPIAPYPSPTRKDLLLHMQELCEGMKLLASDLLDNNRIIERLNRVPAPPDV",–,no binding,–
"TRAF3 (expressed in 293T cells) (other, UniProt Q13114 1-568, looked up, not shown: small tags and cut ends) MESSKKMDSPGALQTNPPLKLHTDRSAGTPVFVPEQGGYKEKFVKTVEDKYKCEKCHLVLCSPKQTECGHRFCESCMAALLSSSSPKCTACQESIVKDKVFKDNCCKREILALQIYCRNESRGCAEQLMLGHLLVHLKNDCHFEELPCVRPDCKEKVLRKDLRDHVEKACKYREATCSHCKSQVPMIALQKHEDTDCPCVVVSCPHKCSVQTLLRSELSAHLSECVNAPSTCSFKRYGCVFQGTNQQIKAHEASSAVQHVNLLKEWSNSLEKKVSLLQNESVEKNKSIQSLHNQICSFEIEIERQKEMLRNNESKILHLQRVIDSQAEKLKELDKEIRPFRQNWEEADSMKSSVESLQNRVTELESVDKSAGQVARNTGLLESQLSRHDQMLSVHDIRLADMDLRFQVLETASYNGVLIWKIRDYKRRKQEAVMGKTLSLYSQPFYTGYFGYKMCARVYLNGDGMGKGTHLSLFFVIMRGEYDALLPWPFKQKVTLMLMDQGSSRRHLGDAFKPDPNSSSFKKPTGEMNIASGCPVFVAQTVLENGTYIKDDTIFIKVIVDTSDLPDP",no binding,–,–
"Flag-MAVS (other, UniProt Q7Z434 1-540, looked up, not shown: small tags and cut ends) MPFAEDKTYKYICRNFSNFCNVDVVEILPYLPCLTARDQDRLRATCTLSGNRDTLWHLFNTLQRRPGWVEYFIAALRGCELVDLADEVASVYQSYQPRTSDRPPDPLEPPSLPAERPGPPTPAAAHSIPYNSCREKEPSYPMPVQETQAPESPGENSEQALQTLSPRAIPRNPDGGPLESSSDLAALSPLTSSGHQEQDTELGSTHTAGATSSLTPSRGPVSPSVSFQPLARSTPRASRLPGPTGSVVSTGTSFSSSSPGLASAGAAEGKQGAESDQAEPIICSSGAEAPANSLPSKVPTTLMPVNTVALKVPANPASVSTVPSKLPTSSKPPGAVPSNALTNPAPSKLPINSTRAGMVPSKVPTSMVLTKVSASTVPTDGSSRNEETPAAPTPAGATGGSSAWLDSSSENRGLGSELSKPGVLASQVDSPFSGCFEDLAISASTSLGMGPCHGPEENEYKSEGTFGIHVAENPSIQLLEGNPGPPADPDGGPRPQADRKFQEREVPCHRPSPGALWLQVAVTGVLVVTLLVVLYRRRLH",–,no binding,–
"endogenous NEMO (RAW264.7 cells) (other, mouse, UniProt O88522 1-412, looked up) MNKHPWKNQLSEMVQPSGGPAEDQDMLGEESSLGKPAMLHLPSEQGTPETLQRCLEENQELRDAIRQSNQMLRERCEELLHFQVSQREEKEFLMCKFQEARKLVERLSLEKLDLRSQREQALKELEQLKKCQQQMAEDKASVKAQVTSLLGELQESQSRLEAATKDRQALEGRIRAVSEQVRQLESEREVLQQQHSVQVDQLRMQNQSVEAALRMERQAASEEKRKLAQLQAAYHQLFQDYDSHIKSSKGMQLEDLRQQLQQAEEALVAKQELIDKLKEEAEQHKIVMETVPVLKAQADIYKADFQAERHAREKLVEKKEYLQEQLEQLQREFNKLKVGCHESARIEDMRKRHVETPQPPLLPAPAHHSFHLALSNQRRSPPEEPPDFCCPKCQYQAPDMDTLQIHVMECIE",–,–,binding result [3]: no binding
"IRF3 (expressed in 293T cells) (other, UniProt Q14653 1-427, looked up, not shown: small tags and cut ends) MGTPKPRILPWLVSQLDLGQLEGVAWVNKSRTRFRIPWKHGLRQDAQQEDFGIFQAWAEATGAYVPGRDKPDLPTWKRNFRSALNRKEGLRLAEDRSKDPHDPHKIYEFVNSGVGDFSQPDTSPDTNGGGSTSDTQEDILDELLGNMVLAPLPDPGPPSLAVAPEPCPQPLRSPSLDNPTPFPNLGPSENPLKRLLVPGEEWEFEVTAFYRGRQVFQQTISCPEGLRLVGSEVGDRTLPGWPVTLPDPGMSLTDRGVMSYVRHVLSCLGGGLALWRAGQWLWAQRLGHCHTYWAVSEELLPNSGHGPDGEVPKDKEGGVFDLGPFIVDLITFTEGSGRSPRYALWFCVGESWPQDQPWTKRLVMVKVVPTCLRALVEMARVGGASSLENTVDLHISNSHPLSLTSDQYKAYLQDLVEGMDFQGPGES",no binding,–,–
